Data taken from patent publication US20230220589A1.

Experiments:
[1] = target: M44-modified G NTAA target peptides (M44-G-P2-peptide); assay: encoding assay; P2 E;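 further: fraction of recording tags encoded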
[2] = target: M44-modified P NTAA target peptides; assay: encoding assay; P2 D;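 further: fraction of recording tags encoded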
[3] = target: M44-modified T NTAA target peptides; assay: encoding assay; P2 D;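 further: fraction of recording tags encoded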
[4] = target: M44-modified D NTAA target peptides; assay: encoding assay; P2 D;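 further: fraction of recording tags encoded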
[5] = target: M44-modified H NTAA target peptides; assay: encoding assay; P2 D;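 further: fraction of recording tags encoded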
[6] = target: M44-modified E NTAA target peptides; assay: encoding assay; P2 D;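 further: fraction of recording tags encoded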
[7] = target: M44-modified V NTAA target peptides; assay: encoding assay; P2 D;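 further: fraction of recording tags encoded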
[8] = target: M44-modified S NTAA target peptides; assay: encoding assay; P2 D
[9] = target: M44-modified G NTAA target peptides (M44-G-P2-peptide); assay: encoding assay; P2 H;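 further: fraction of recording tags encoded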
[10] = target: M44-modified E NTAA target peptides; assay: encoding assay; P2 H;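 further: fraction of recording tags encoded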
[11] = target: M44-modified S NTAA target peptides; assay: encoding assay; P2 H
[12] = target: M17-modified D NTAA target peptides; assay: encoding assay; P2 E;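 further: fraction of recording tags encoded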
[13] = target: M17-modified Y NTAA target peptides (M17-Y-P2-peptide); assay: encoding assay; P2 E;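 further: fraction of recording tags encoded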
[14] = target: M17-modified A NTAA target peptides; assay: encoding assay; P2 E;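 further: fraction of recording tags encoded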
[15] = target: M17-modified G NTAA target peptides; assay: encoding assay; P2 E;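 further: fraction of recording tags encoded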
[16] = target: M17-modified F NTAA target peptides; assay: encoding assay; P2 E;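 further: fraction of recording tags encoded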
[17] = target: M17-modified H NTAA target peptides; assay: encoding assay; P2 E;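 further: fraction of recording tags encoded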
[18] = target: M17-modified E NTAA target peptides; assay: encoding assay; P2 E;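 further: fraction of recording tags encoded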
[19] = target: M17-modified L NTAA target peptides; assay: encoding assay; P2 E;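 further: fraction of recording tags encoded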
[20] = target: M17-modified M NTAA target peptides; assay: encoding assay; P2 E;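 further: fraction of recording tags encoded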
[21] = target: M17-modified D NTAA target peptides; assay: encoding assay; P2 D;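 further: fraction of recording tags encoded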
[22] = target: M17-modified Y NTAA target peptides (M17-Y-P2-peptide); assay: encoding assay; P2 D;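 further: fraction of recording tags encoded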
[23] = target: M17-modified A NTAA target peptides; assay: encoding assay; P2 D;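 further: fraction of recording tags encoded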
[24] = target: M17-modified G NTAA target peptides; assay: encoding assay; P2 D;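 further: fraction of recording tags encoded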
[25] = target: M17-modified S NTAA target peptides; assay: encoding assay; P2 D;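 further: fraction of recording tags encoded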
[26] = target: M17-modified F NTAA target peptides; assay: encoding assay; P2 D;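 further: fraction of recording tags encoded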
[27] = target: M17-modified P NTAA target peptides; assay: encoding assay; P2 D;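 further: fraction of recording tags encoded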
[28] = target: M17-modified H NTAA target peptides; assay: encoding assay; P2 D;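 further: fraction of recording tags encoded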
[29] = target: M17-modified V NTAA target peptides; assay: encoding assay; P2 D;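 further: fraction of recording tags encoded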
[30] = target: M17-modified I NTAA target peptides; assay: encoding assay; P2 D;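 further: fraction of recording tags encoded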
[31] = target: M17-modified W NTAA target peptides; assay: encoding assay; P2 D;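 further: fraction of recording tags encoded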
[32] = target: M17-modified E NTAA target peptides; assay: encoding assay; P2 D;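 further: fraction of recording tags encoded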
[33] = target: M17-modified N NTAA target peptides; assay: encoding assay; P2 D;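 further: fraction of recording tags encoded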
[34] = target: M17-modified T NTAA target peptides; assay: encoding assay; P2 D;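 further: fraction of recording tags encoded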
[35] = target: M17-modified Q NTAA target peptides; assay: encoding assay; P2 D;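 further: fraction of recording tags encoded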
[36] = target: M17-modified L NTAA target peptides; assay: encoding assay; P2 D;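 further: fraction of recording tags encoded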
[37] = target: M17-modified M NTAA target peptides; assay: encoding assay; P2 D;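 further: fraction of recording tags encoded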
[38] = target: M17-modified D NTAA target peptides; assay: encoding assay; P2 H;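 further: fraction of recording tags encoded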
[39] = target: M17-modified Y NTAA target peptides (M17-Y-P2-peptide); assay: encoding assay; P2 H;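 further: fraction of recording tags encoded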
[40] = target: M17-modified A NTAA target peptides; assay: encoding assay; P2 H;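 further: fraction of recording tags encoded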
[41] = target: M17-modified G NTAA target peptides; assay: encoding assay; P2 H;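 further: fraction of recording tags encoded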
[42] = target: M17-modified S NTAA target peptides; assay: encoding assay; P2 H;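 further: fraction of recording tags encoded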
[43] = target: M17-modified F NTAA target peptides; assay: encoding assay; P2 H;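 further: fraction of recording tags encoded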
[44] = target: M17-modified P NTAA target peptides; assay: encoding assay; P2 H;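 further: fraction of recording tags encoded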
[45] = target: M17-modified H NTAA target peptides; assay: encoding assay; P2 H;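 further: fraction of recording tags encoded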
[46] = target: M17-modified V NTAA target peptides; assay: encoding assay; P2 H;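 further: fraction of recording tags encoded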
[47] = target: M17-modified I NTAA target peptides; assay: encoding assay; P2 H;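 further: fraction of recording tags encoded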
[48] = target: M17-modified W NTAA target peptides; assay: encoding assay; P2 H;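 further: fraction of recording tags encoded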
[49] = target: M17-modified E NTAA target peptides; assay: encoding assay; P2 H;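 further: fraction of recording tags encoded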
[50] = target: M17-modified N NTAA target peptides; assay: encoding assay; P2 H;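 further: fraction of recording tags encoded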
[51] = target: M17-modified T NTAA target peptides; assay: encoding assay; P2 H;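 further: fraction of recording tags encoded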
[52] = target: M17-modified Q NTAA target peptides; assay: encoding assay; P2 H;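 further: fraction of recording tags encoded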
[53] = target: M17-modified L NTAA target peptides; assay: encoding assay; P2 H;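 further: fraction of recording tags encoded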
[54] = target: M17-modified M NTAA target peptides; assay: encoding assay; P2 H;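 further: fraction of recording tags encoded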

B1: engineered M44-L binder (SEQ ID NO: 31) (designed binder, not shown: small tags and cut ends; large carriers)
chain: QDSTQNLIPAPPLISVPLQPGFWTERFQGRWFLVGFAGNAVQKERQSRLTMQSLILELQEDNSYNITAINVRGQGCRYIISTLVPSSRPGQFTLGNIHSYPQIQSLDVQVADTDYDQFAMVFLQGTSENKQYFEVALAGRTKGLSDELKERFVSFAKSLGLKDNNIVFSVPTDQCIDN
encoding yield [1]: 0.01 | encoding yield [2]: 0.01 | encoding yield [3]: 0.01 | encoding yield [4]: 0.01 | encoding yield [5]: 0.01 | encoding yield [6]: 0.01 | encoding yield [7]: 0.03 | encoding yield [8]: 0.01 | encoding yield [9]: 0.01 | encoding yield [10]: 0.02 | encoding yield [11]: 0.01

B2: engineered M17-Y binder (SEQ ID NO: 61) (designed binder, not shown: small tags and cut ends; large carriers)
chain: TVPDRSEIAGKWYVVALASNTEFYLREKDWVKSAMARISFLGEDELKVSSAVPSPNGCYKVERTWKKTSDDGEVYNSRAAKLKVEVLDTDYKSYAVIYATRVKDGRTDHQMILYSRSPEVSPAATAIFRKLAGERNYTDEMVAMLPRQEECTVDEV
encoding yield [12]: 0.02 | encoding yield [13]: 0.07 | encoding yield [14]: 0.02 | encoding yield [15]: 0.01 | encoding yield [16]: 0.01 | encoding yield [17]: 0.02 | encoding yield [18]: 0.02 | encoding yield [19]: 0.02 | encoding yield [20]: 0.01 | encoding yield [21]: 0.01 | encoding yield [22]: 0.05 | encoding yield [23]: 0.02 | encoding yield [24]: 0.03 | encoding yield [25]: 0.01 | encoding yield [26]: 0.04 | encoding yield [27]: 0.01 | encoding yield [28]: 0.01 | encoding yield [29]: 0.02 | encoding yield [30]: 0.01 | encoding yield [31]: 0.02 | encoding yield [32]: 0.02 | encoding yield [33]: 0.02 | encoding yield [34]: 0.01 | encoding yield [35]: 0.01 | encoding yield [36]: 0.02 | encoding yield [37]: 0.02 | encoding yield [38]: 0.02 | encoding yield [39]: 0.07 | encoding yield [40]: 0.02 | encoding yield [41]: 0.01 | encoding yield [42]: 0.01 | encoding yield [43]: 0.02 | encoding yield [44]: 0.03 | encoding yield [45]: 0.03 | encoding yield [46]: 0.03 | encoding yield [47]: 0.03 | encoding yield [48]: 0.02 | encoding yield [49]: 0.01 | encoding yield [50]: 0.03 | encoding yield [51]: 0.02 | encoding yield [52]: 0.02 | encoding yield [53]: 0.02 | encoding yield [54]: 0.02

B3: upgraded binder after additional maturation round (SEQ ID NO: 62) (designed binder, not shown: small tags and cut ends; large carriers)
chain: TVPDRSEIAGKWYVVALASNTEFYLRGKDRVKSAMVRISFQGEDELKVSSAVPSPNGCYKVERTWKKTSDDGEVYNSRAAKLKVEVLDTDYKSYAVIYATRVKDRRTDHQMILYSRSPDVSPAATAIFRKLAGERNYTDEMVAMLPRQEECTVDEV
encoding yield [12]: 0.02 | encoding yield [13]: 0.16 | encoding yield [14]: 0.03 | encoding yield [15]: 0.02 | encoding yield [16]: 0.02 | encoding yield [17]: 0.02 | encoding yield [18]: 0.03 | encoding yield [19]: 0.02 | encoding yield [20]: 0.01 | encoding yield [21]: 0.02 | encoding yield [22]: 0.1 | encoding yield [23]: 0.03 | encoding yield [24]: 0.03 | encoding yield [25]: 0.01 | encoding yield [26]: 0.05 | encoding yield [27]: 0.02 | encoding yield [28]: 0.02 | encoding yield [29]: 0.02 | encoding yield [30]: 0.02 | encoding yield [31]: 0.03 | encoding yield [32]: 0.02 | encoding yield [33]: 0.03 | encoding yield [34]: 0.01 | encoding yield [35]: 0.02 | encoding yield [36]: 0.03 | encoding yield [37]: 0.03 | encoding yield [38]: 0.03 | encoding yield [39]: 0.07 | encoding yield [40]: 0.03 | encoding yield [41]: 0.02 | encoding yield [42]: 0.02 | encoding yield [43]: 0.02 | encoding yield [44]: 0.04 | encoding yield [45]: 0.02 | encoding yield [46]: 0.02 | encoding yield [47]: 0.03 | encoding yield [48]: 0.03 | encoding yield [49]: 0.02 | encoding yield [50]: 0.03 | encoding yield [51]: 0.03 | encoding yield [52]: 0.03 | encoding yield [53]: 0.02 | encoding yield [54]: 0.03

B4: engineered M44-A binder (SEQ ID NO: 42) (designed binder, not shown: small tags and cut ends; large carriers)
chain: QVSVQPNFQQDKFLGRWFVAGLASNSSWDREKVAALSGAKMVVAPATDGGLNVTRTMLRKNQCETYTGLLQPAGSLGSYSWRSPHPGSTGSESVVETDYDQYALVYGQGSKGPGEDLRAAALWSRTQTPRAELKEKFTAFSKAQGFTEDTIVFLPQTDKCMTEQ
encoding yield [1]: 0.01 | encoding yield [2]: 0.01 | encoding yield [3]: 0.01 | encoding yield [4]: 0.02 | encoding yield [5]: 0.01 | encoding yield [6]: 0.01 | encoding yield [7]: 0.03 | encoding yield [8]: 0.01 | encoding yield [9]: 0.01 | encoding yield [10]: 0.03 | encoding yield [11]: 0.01
